Measured values from paper PMC7397744.

Test: crystallisation trials
Settings: glycan lost; control: wild type

B1: human lysosomal acid lipase (HLAL): enzymatically deglycosylated (protein)
parent chain: MKMRFLGLVVCLVLWTLHSEGSGGKLTAVDPETNMNVSEIISYWGFPSEEYLVETEDGYILCLNRIPHGRKNHSDKGPKPVVFLQHGLLADSSNWVTNLANSSLGFILADAGFDVWMGNSRGNTWSRKHKTLSVSQDEFWAFSYDEMAKYDLPASINFILNKTGQEQVYYVGHSQGTTIGFIAFSQIPELAKRIKMFFALGPVASVAFCTSPMAKLGRLPDHLIKDLFGDKEFLPQSAFLKWLGTHVCTHVILKELCGNLCFLLCGFNERNLNMSRVDVYTTHSPAGTSVQNMLHWSQAVKFQKFQAFDWGSSAKNYFHYNQSYPPTYNVKDMLVPTAVWSGGHDWLADVYDVNILLTQITNLVFHESIPEWEHLDFIWGLDAPWRLYNKIINLMRKYQ
other: crystallisability: no change
